{"source": "paper PMC3789972", "about": "“Human Mitochondrial Chaperone (mtHSP70) and Cysteine Desulfurase (NFS1) Bind Preferentially to the Disordered Conformation, Whereas Co-chaperone (HSC20) Binds to the Structured Conformation of the Iron-Sulfur Cluster Scaffold Protein (ISCU)*” (The Journal of Biological Chemistry, 2013)", "molecules": {"B1": {"name": "human iron-sulfur cluster scaffold protein ISCU, wild type, mature form (natural protein, UniProt Q9H1K1 35-167, looked up)", "chain": "YHKKVVDHYENPRNVGSLDKTSKNVGTGLVGAPACGDVMKLQIQVDEKGKIVDARFKTFGCGSAIASSSLATEWVKGKTVEEALTIKNTDIAKELCLPPVKLHCSMLAEDAIKAALADYKLKQEPKKGEAEKK"}}, "key": {"[1]": {"target": "human iron-sulfur cluster scaffold protein ISCU, wild type, mature form (human) (UniProt Q9H1K1)", "experiment": "NMR titration; 1H,15N TROSY-HSQC of 0.5 mM U-15N-ISCU or U-15N-ISCU(N90A), aliquots of 0.4 mM unlabeled HSC20 added up to equimolar; TKDM buffer, 25 °C; %S from the Trp-76 cross-peaks and chemical shift perturbations"}, "[2]": {"target": "human ISCU(N90A), mature form (human)", "experiment": "NMR titration; 1H,15N TROSY-HSQC of 0.5 mM U-15N-ISCU or U-15N-ISCU(N90A), aliquots of 0.4 mM unlabeled HSC20 added up to equimolar; TKDM buffer, 25 °C; %S from the Trp-76 cross-peaks and chemical shift perturbations"}, "[3]": {"target": "human mitochondrial DnaK-type chaperone mtHSP70, mature form (human) (UniProt P38646)", "sequence (P38646 47-679)": "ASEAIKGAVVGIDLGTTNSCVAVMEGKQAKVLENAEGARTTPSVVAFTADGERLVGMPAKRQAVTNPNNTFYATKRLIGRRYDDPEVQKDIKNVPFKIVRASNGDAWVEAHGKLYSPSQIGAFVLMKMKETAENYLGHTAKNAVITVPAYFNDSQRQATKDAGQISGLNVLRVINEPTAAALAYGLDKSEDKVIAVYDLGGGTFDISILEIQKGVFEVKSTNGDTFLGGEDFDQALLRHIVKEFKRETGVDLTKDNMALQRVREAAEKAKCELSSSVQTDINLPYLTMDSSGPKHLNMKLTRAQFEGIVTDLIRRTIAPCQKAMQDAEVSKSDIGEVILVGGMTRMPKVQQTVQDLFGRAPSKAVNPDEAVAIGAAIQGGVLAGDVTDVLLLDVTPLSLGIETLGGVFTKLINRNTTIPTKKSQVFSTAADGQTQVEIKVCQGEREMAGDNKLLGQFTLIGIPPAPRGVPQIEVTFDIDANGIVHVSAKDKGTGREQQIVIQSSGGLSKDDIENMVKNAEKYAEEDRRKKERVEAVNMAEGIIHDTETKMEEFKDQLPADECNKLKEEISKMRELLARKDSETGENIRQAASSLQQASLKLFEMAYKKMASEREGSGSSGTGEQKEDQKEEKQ"}, "[4]": {"target": "human ISCU(N90A), mature form (human)", "experiment": "NMR titration; 1H,15N HSQC / TROSY-HSQC of 0.5 mM U-15N-ISCU or variant, aliquots of 0.5 mM unlabeled mtHSP70 added up to equimolar; TKDM buffer (50 mM Tris-HCl pH 7.5, 150 mM KCl, 5 mM DTT, 10 mM MgCl2), 25 °C; %S from the Trp-76 cross-peaks"}, "[5]": {"target": "human ISCU(H105A), mature form (human)", "experiment": "NMR titration; 1H,15N HSQC / TROSY-HSQC of 0.5 mM U-15N-ISCU or variant, aliquots of 0.5 mM unlabeled mtHSP70 added up to equimolar; TKDM buffer (50 mM Tris-HCl pH 7.5, 150 mM KCl, 5 mM DTT, 10 mM MgCl2), 25 °C; %S from the Trp-76 cross-peaks"}, "[6]": {"target": "human mitochondrial DnaK-type chaperone mtHSP70, mature form (human, UniProt P38646 47-679)", "sequence (P38646 47-679)": "as above", "experiment": "cell-based or functional assay"}}, "data": [{"molecule": "human mitochondrial DnaJ-type co-chaperone HSC20, mature form (natural protein)", "values": [{"measurement": "%S of ISCU after adding equimolar HSC20", "setting": "[1]", "result": 31, "unit": "%"}, {"measurement": "%S of ISCU(N90A) after adding 1 eq of HSC20", "setting": "[2]", "result": 99, "unit": "%"}]}, {"molecule": "human ISCU(N90A), mature form (natural protein)", "values": [{"measurement": "ATPase activity of 1 μM mtHSP70: concentration of ISCU(N90A) required for half-maximal stimulation in the presence of 5 μM HSC20, double-reciprocal plot", "setting": "[3]", "result": 3.5, "unit": "µM"}, {"measurement": "ATPase activity of 1 μM mtHSP70: maximal stimulation by ISCU(N90A) in the presence of 5 μM HSC20, double-reciprocal plot", "setting": "[3]", "result": 8, "unit": "fold"}, {"measurement": "ATPase activity of 1 μM mtHSP70 as a function of added ISCU(N90A) up to 24 μM in the presence of 5 μM HSC20: increase over basal activity", "setting": "[3]", "result": 7, "unit": "fold"}]}, {"molecule": "human mitochondrial DnaK-type chaperone mtHSP70, mature form (from UniProt P38646 47-679) (natural protein)", "values": [{"measurement": "%S of ISCU(N90A) at mole fraction 1.0 of added mtHSP70", "setting": "[4]", "result": 83, "unit": "%"}, {"measurement": "%S of ISCU(H105A) at mole fraction 1.0 of added mtHSP70", "setting": "[5]", "result": 0.54, "unit": "%"}]}, {"molecule": "B1", "values": [{"measurement": "ATPase activity of 1 μM mtHSP70: increase over basal activity with 15 μM ISCU and 4 μM HSC20", "setting": "[6]", "result": "~15", "unit": "fold"}, {"measurement": "ATPase activity of 1 μM mtHSP70: maximal stimulation upon adding ISCU in the presence of 5 μM HSC20, double-reciprocal plot", "setting": "[6]", "result": "~17", "unit": "fold"}]}]}
